Test results: publication PMC7717530, “EphA7 isoforms differentially regulate cortical dendrite development” (PLoS ONE, 2020)

Target: EphA7 full-length isoform with hemagglutinin tag (EphA7-FL-HA) (UniProt Q61772-1 28-998)
Experiment: cell-based or functional assay

Sequence of EphA7 full-length isoform with hemagglutinin tag (EphA7-FL-HA) (Q61772 28-998): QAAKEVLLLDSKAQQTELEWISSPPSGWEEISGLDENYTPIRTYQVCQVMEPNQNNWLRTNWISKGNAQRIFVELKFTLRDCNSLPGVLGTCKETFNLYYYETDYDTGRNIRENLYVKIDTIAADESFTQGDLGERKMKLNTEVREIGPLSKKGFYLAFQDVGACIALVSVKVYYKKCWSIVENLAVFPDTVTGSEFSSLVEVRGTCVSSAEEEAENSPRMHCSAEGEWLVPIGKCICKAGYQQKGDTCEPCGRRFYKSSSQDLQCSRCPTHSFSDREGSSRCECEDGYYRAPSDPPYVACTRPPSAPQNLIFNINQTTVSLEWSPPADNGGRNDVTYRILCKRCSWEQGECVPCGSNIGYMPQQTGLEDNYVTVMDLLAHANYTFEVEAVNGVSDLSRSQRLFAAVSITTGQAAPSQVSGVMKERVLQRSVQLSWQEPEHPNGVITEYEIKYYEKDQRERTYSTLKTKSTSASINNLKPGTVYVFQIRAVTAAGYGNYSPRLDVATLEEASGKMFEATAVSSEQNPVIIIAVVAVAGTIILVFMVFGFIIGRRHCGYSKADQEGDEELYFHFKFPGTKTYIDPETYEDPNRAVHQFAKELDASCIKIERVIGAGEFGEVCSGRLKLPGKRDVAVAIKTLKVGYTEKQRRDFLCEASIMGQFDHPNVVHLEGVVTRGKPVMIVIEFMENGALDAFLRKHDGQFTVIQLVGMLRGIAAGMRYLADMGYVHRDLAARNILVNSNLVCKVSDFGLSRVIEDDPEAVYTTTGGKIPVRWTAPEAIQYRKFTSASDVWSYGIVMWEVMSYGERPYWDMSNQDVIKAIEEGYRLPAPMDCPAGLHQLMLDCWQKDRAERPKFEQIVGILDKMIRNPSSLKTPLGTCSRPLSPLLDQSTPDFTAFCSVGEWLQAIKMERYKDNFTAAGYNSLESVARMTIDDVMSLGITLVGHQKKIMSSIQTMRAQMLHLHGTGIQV

B1: EphA7 truncated isoform with myc tag (EphA7-T1-myc) (receptor)
chain: not shown
  EphA7-FL tyrosine phosphorylation (phospho-tyrosine over total HA after HA IP) in HEK cells stimulated with clustered ephrin-A5-hFC, at EphA7-T1:FL ratios 1:1 (65%) and 5:1 (42%) compared to 0.2:1: 65 % of EphA7-FL tyrosine phosphorylation compared to a ratio of 0.2:1
